Experimental data taken from patent US20110053268A1, “METHOD FOR DIAGNOSIS OF ABNORMAL IRON METABOLISM USING ACTIVE HEPCIDIN AS INDICATOR” (priority 2006, published 2011).
“Also recorded” adds a separate entry of the source. One block for each molecule: values may come before it.

What was measured:
[1] = Clearance of serum peptides by hemodialysis (SELDI-TOF-MS before and after hemodialysis); format: in vivo, human; settings: hemodialysis patients, serum before vs after hemodialysis
Experimental: Serum samples were obtained from 40 hemodialysis patients before and after hemodialysis. All patients were receiving hemodialysis treatment three times a week. […] Serum samples were separated by centrifugation (3,000 rpm) and stored at −80° C. until assayed.
SELDI analysis was performed according to the manufacturer's manual, with some modifications. In brief, serum and urine samples were diluted 20-fold and 10-fold, respectively, with binding buffer (phosphate buffered saline, pH 7.4). Using a bioprocessor, 40 μl of diluted samples were applied onto different arrays of an IMAC 30-Cu chip pretreated with 100 mM copper sulfate binding buffer and the chip was incubated at room temperature for 30 min with constant horizontal shaking. For confirmation of the reproducibility, each sample was applied to two separate spots on an IMAC 30-Cu chip. Unbound proteins were removed by washing three times with binding buffer for 5 min. The arrays were rinsed twice with 400 μl of water, were air-dried, and 0.5 μl of alpha-cyano-4-hydroxy-cinnamic acid (CHCA; Ciphergen) in 50% acetonitrile and 0.5% trifluoroacetic acid was added twice onto the surface of the chip. Next, the arrays were analyzed using the Ciphergen ProteinChip® Reader PBS II. The proteins with CHCA were ionized and their molecular masses were determined by TOF analysis. The mass-to-charge ratio (m/z) of each of the proteins/peptides captured on the array surface was determined according to externally calibrated standards: Arg8-vasopressin (1,084.25 Da), somatostatin (1,637.9 Da), dynorphin (2,147.5 Da), bovine insulin beta-chain (3,495.94 Da), human insulin (5,807.65 Da), bovine ubiquitin (8,564.8 Da), and bovine cytochrome C (12,230.9 Da). The mass spectra of the samples were generated using an average of 80 laser shots at a laser intensity of 180 and a detector sensitivity of 10. Synthetic hepcidin-25 (Peptide Institute Inc, Osaka) was used as a marker of 2,789 Da. […]

IL-6 receptor = biological target: T1, IL-6 receptor (Homo sapiens, UniProt P08887); experiment: Tocilizumab treatment of two Castleman's disease cases, serum and urine hepcidin monitored by SELDI-TOF-MS; format: in vivo
T1 construct: before and after tocilizumab treatment in two Castleman's disease cases; from tissue; host or cells: patients with Castleman's disease (in vivo treatment)
T1 sequence (P08887 20-468): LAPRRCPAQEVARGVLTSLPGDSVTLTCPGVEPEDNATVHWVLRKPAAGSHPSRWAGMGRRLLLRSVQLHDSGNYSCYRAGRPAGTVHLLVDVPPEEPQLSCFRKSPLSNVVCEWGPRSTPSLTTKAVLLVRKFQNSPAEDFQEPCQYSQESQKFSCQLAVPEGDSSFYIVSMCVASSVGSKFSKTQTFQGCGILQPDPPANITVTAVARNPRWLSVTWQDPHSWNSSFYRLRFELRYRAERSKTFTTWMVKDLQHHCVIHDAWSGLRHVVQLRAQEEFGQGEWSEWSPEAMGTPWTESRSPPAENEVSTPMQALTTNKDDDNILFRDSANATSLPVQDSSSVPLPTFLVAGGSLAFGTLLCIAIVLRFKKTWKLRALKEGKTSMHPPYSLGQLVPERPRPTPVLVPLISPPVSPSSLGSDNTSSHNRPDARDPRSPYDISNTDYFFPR
Experimental: The present inventor monitored serum and urine hepcidin before and after tocilizumab treatment in two Castleman's disease cases who began treatment with tocilizumab (registered trademark: Actemra), from 7 days before treatment to 14 days after the start of the treatment. The measurement of hepcidin was performed in the manner described in Example 1.

[2] = Intravenous iron administration (iron loading) in a hemodialysis patient, serial serum profiling
Excerpt: Serum samples were obtained from 40 hemodialysis patients before and after hemodialysis. All patients were receiving hemodialysis treatment three times a week. In addition, serum samples were collected from patients with acute pyelonephritis (two patients), pneumonia (two patients), and sepsis (two patients), as well as from 16 healthy volunteers with normal renal function. Serial samples of serum and urine obtained from two patients with acute pyelonephritis and two hemodialysis patients who had received intravenous iron administration for iron deficiency were also analyzed. Red blood cell (RBC) count, hemoglobin (Hb), hematocrit (Ht), plasma iron, and ferritin were evaluated for the clinical assessment of iron status and anemia. Serum samples were separated by centrifugation (3,000 rpm) and stored at −80° C. until assayed. Informed consent for the analysis of the protein profiling of serum and/or urine was obtained from all the participants.
For preliminary trials, multiple types of protein chips were used with various surface characteristics, which included weak cation exchange, strong anion exchange, and immobilized metal affinity capture for protein molecules that bind divalent cationic copper. The present inventor eventually chose the mobilized metal affinity capture ProteinChip® array (IMAC 30-Cu) for the entire study because of its reproducibility in detecting protein species from serum and urine. SELDI analysis was performed according to the manufacturer's manual, with some modifications. In brief, serum and urine samples were diluted 20-fold and 10-fold, respectively, with binding buffer (phosphate buffered saline, pH 7.4). Using a bioprocessor, 40 μl of diluted samples were applied onto different arrays of an IMAC 30-Cu chip pretreated with 100 mM copper sulfate binding buffer and the chip was incubated at room temperature for 30 min with constant horizontal shaking. For confirmation of the reproducibility, each sample was applied to two separate spots on an IMAC 30-Cu chip. Unbound proteins were removed by washing three times with binding buffer for 5 min. […] Next, the arrays were analyzed using the Ciphergen ProteinChip® Reader PBS II. The proteins with CHCA were ionized and their molecular masses were determined by TOF analysis. The mass-to-charge ratio (m/z) of each of the proteins/peptides captured on the array surface was determined according to externally calibrated standards: Arg8-vasopressin (1,084.25 Da), somatostatin (1,637.9 Da), dynorphin (2,147.5 Da), bovine insulin beta-chain (3,495.94 Da), human insulin (5,807.65 Da), bovine ubiquitin (8,564.8 Da), and bovine cytochrome C (12,230.9 Da). […]

[3] = case 1, day 3 after tocilizumab

Molecule: hepcidin-20 (ICIFCCGCCHRSKCGMCCKT; listed as Homo sapiens) [2,192 m/z]
- removal rate by hemodialysis [1]: 45±19%

Molecule: hepcidin
- half-life of hepcidin in serum (IL-6 receptor; inferred from the drop in hepcidin after tocilizumab): short

Molecule: [Fe] [iron]
- expression of the serum 2,192 m/z peak (hepcidin-20) ([2]; i.v. iron for eight weeks): increased
- intensity of the serum peak at 2,789 m/z (hepcidin-25) ([2]; i.v. iron for eight weeks): increased gradually
- serum ferritin level after iron administration ([2]; increased from 11.3 ng/ml, 40 mg iron i.v. twice a week for eight weeks, person on hemodialysis): 273 ng/mL

- urine level of hepcidin-20 (IL-6 receptor; [3]): dramatically reduced
- urine level of hepcidin-25 (IL-6 receptor; [3]): dramatically reduced
- high CRP levels, anemia, and hypoalbuminemia (IL-6 receptor; cases 1 and 2, up to 14 days after start of treatment): alleviated
- serum ferritin level (IL-6 receptor; cases 1 and 2 after tocilizumab): reduced slowly
Molecule: tocilizumab
- serum hepcidin-25 level (IL-6 receptor; both Castleman's disease cases, within a single day after the first dose of tocilizumab): downregulation; also recorded: drastically reduced

Molecule: hepcidin-25 [2,789 m/z]
- removal rate by hemodialysis [1]: 46±23%
- removal rate by hemodialysis ([1]; listed as hepcidin-25): 46%
